The values that follow come from the supplement of paper PMC10567573.

The nature of the data set: protein stability index of a GFP-peptide fusion (GPS, HEK-293T) (PSI 1-6); higher = more stable. The conditions noted are these: c terminus: a fixed tail appended.

± gives the standard deviation.
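Note: 24-mer peptide tiles fused after GFP, lentivirally expressed, FACS-sorted into six equal bins by GFP/DsRed ratio, decoded by Illumina sequencing, PSI is the read-weighted mean bin number.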

Regarding TESSNTTIEDEDVKARKQEIIKVT [CAMK2D], the protein stability index stood at 5.21 ± 0.29 (treatment: DMSO) and 5.07 ± 0.25 (treatment: MLN4924 1 uM, 8 h).
In turn, TFDTGCLTLSQYILLDPILMFFIM [POMT2] gave a protein stability index (treatment: DMSO) of 2.35 ± 0.52 and a protein stability index (treatment: MLN4924 1 uM, 8 h) of 2.33 ± 0.36.
On the same counts, the results for TFFCPNDTYNDMATLFFNPQESAI [CLCN6] are 2.23 ± 0.32 and 2.26 ± 0.22.
TGFPQYAQLYEDFLFPIDISLVKR [DLC1]: the protein stability index by setting is: (treatment: DMSO) 2.37 ± 0.24; (treatment: MLN4924 1 uM, 8 h) 2.35 ± 0.54.
Taken in the same sequence, the figures for TGIEYIVAQGPTNQGLNVMVWNQN [ADAMTSL2] were 2.175 ± 0.019 and 2.1 ± 0.24.
On to TGIVNHTHSRMGSIMSTGIVQGSS [CARM1], for which the protein stability index reads like this: (treatment: DMSO) 3.12 ± 0.2; (treatment: MLN4924 1 uM, 8 h) 3.5 ± 0.63.
TGNVCIEEIDVDGKFIRLKNTSEQ [LMNB1] showed a protein stability index (treatment: DMSO) of 4.76 ± 0.29 and a protein stability index (treatment: MLN4924 1 uM, 8 h) of 4.76 ± 0.15.
Regarding TGTSKRYQLCRVQECPPDGRSFRE [ADAMTSL2], the protein stability index stood at 2.58 ± 0.71 (treatment: DMSO) and 3.09 ± 0.62 (treatment: MLN4924 1 uM, 8 h).
For the sequence THIMKGEDDALSDKHGCPAYVSPE [TRIB1], the protein stability index reads like this: (treatment: DMSO) 5.12 ± 0.14; (treatment: MLN4924 1 uM, 8 h) 4.91 ± 0.22.
On to TIAQSLEHSWIKAIRRRNVRGEDS [DAPK3], for which the protein stability index came out at 3.64 ± 0.41 (treatment: DMSO) and 3.4 ± 0.15 (treatment: MLN4924 1 uM, 8 h).
As to TIDMGPQLKVVERTRTATMLCAAS [PTPRD], the protein stability index amounted to 3.18 ± 0.23 (treatment: DMSO) and 3.49 ± 0.21 (treatment: MLN4924 1 uM, 8 h).
With TIVTDVFQGSMRIFTKKLPHPDLP [USP39], the protein stability index is, setting by setting: (treatment: DMSO) 2.31 ± 0.099; (treatment: MLN4924 1 uM, 8 h) 2.38 ± 0.29.
As for TKKKKKTIVTDVFQGSMRIFTKKL [USP39], the protein stability index (treatment: DMSO) stood at 2.49 ± 0.26 and the protein stability index (treatment: MLN4924 1 uM, 8 h) worked out at 2.83 ± 0.11.
For the sequence TKKRKTFDSSRQRAEGTDIPTVKP [ZC2HC1A], the protein stability index runs as follows: (treatment: DMSO) 4.86 ± 0.22; (treatment: MLN4924 1 uM, 8 h) 4.79 ± 0.2.
Take TLEALGYKGPLLEEQALTKAAEGG [FAM98B]: the protein stability index runs as follows: (treatment: DMSO) 4.61 ± 0.23; (treatment: MLN4924 1 uM, 8 h) 4.66 ± 0.083.
Taken in the same sequence, the figures for TLKEAYVQKLVKVCTDTDRWSLIS [TENT5C] were 2.58 ± 0.4 and 2.4 ± 0.41.
Taken in the same sequence, the figures for TLMTMAIRIIDRALKEDFGFKHRL [PRIM1] were 2.99 ± 0.62 and 2.9 ± 0.54.
With TLSAELVPWLNLKKQDENEGIKVE [CEP70], the protein stability index is, setting by setting: (treatment: DMSO) 4.33 ± 0.057; (treatment: MLN4924 1 uM, 8 h) 4.22 ± 0.098.
For TMEYSMVGRTVLDMLIREVVEKRL [RSPH3], the protein stability index (treatment: DMSO) came to 2.68 ± 0.54 and the protein stability index (treatment: MLN4924 1 uM, 8 h) is 2.64 ± 0.3.
Taken in the same sequence, the figures for TNCQKVLNMWCCCFFKRRKRKTIQ [CSNK1G3] were 4.01 ± 0.26 and 3.77 ± 0.21.
Consider TPLPETGYWRVRLWNGDKYAATTT [TRIM39], for which the protein stability index runs as follows: (treatment: DMSO) 2.47 ± 0.34; (treatment: MLN4924 1 uM, 8 h) 2.37 ± 0.2.
On to TQEFLSACKSLQTRQNGIQTNKPA [STX5], for which the protein stability index was 4.18 ± 0.21 (treatment: DMSO) and 4.14 ± 0.23 (treatment: MLN4924 1 uM, 8 h).
On the same counts, the results for TQEGAKDLEVDMNKTEVTPRLWTT [ACSBG2] are 3.55 ± 0.62 and 4.03 ± 0.68.
On the same counts, the results for TQNHAASALPTGSPKRGTAPGDLS [FBF1] are 5.08 ± 0.18 and 5.13 ± 0.21.
For TQTWCTQSWNNQAWNSPFYNCGEE [NANOGP8], the protein stability index (treatment: DMSO) turned out to be 3.07 ± 0.25 and the protein stability index (treatment: MLN4924 1 uM, 8 h) was determined as 3.2 ± 0.12.
Consider TREWTQLKPNNLSCDLPEERYRHE [KLHDC10], for which the protein stability index runs as follows: (treatment: DMSO) 4.61 ± 0.3; (treatment: MLN4924 1 uM, 8 h) 4.71 ± 0.13.
Taken in the same sequence, the figures for TRRLRLAHVGMELQLKQELAMLNA [SCARA5] were 2.65 ± 0.23 and 2.55 ± 0.22.
For the sequence TRWYRAPELLVGDTQYGSSVDIWA [CDKL4], the protein stability index by setting is: (treatment: DMSO) 1.97 ± 0.59; (treatment: MLN4924 1 uM, 8 h) 2.26 ± 0.39.
As for TSDVYSSDAAFGGILERYWLSSRA [MYORG], the protein stability index runs as follows: (treatment: DMSO) 2.62 ± 0.11; (treatment: MLN4924 1 uM, 8 h) 2.47 ± 0.092.
Regarding TSSVSCALDEAAAALTRMRAESTA [ANKRD17], the protein stability index was 3.06 ± 0.42 (treatment: DMSO) and 3.05 ± 0.32 (treatment: MLN4924 1 uM, 8 h).
On to TTENENTKFEVRLLRDPADASEAH [CHGB], for which the protein stability index was 5.18 ± 0.21 (treatment: DMSO) and 5.24 ± 0.14 (treatment: MLN4924 1 uM, 8 h).
For TWAPKNKGGEERKAEGGEEDSLGC [IRX6], the protein stability index is, setting by setting: (treatment: DMSO) 5.5 ± 0.16; (treatment: MLN4924 1 uM, 8 h) 5.42 ± 0.18.
Taken in the same sequence, the figures for TWLPSRAEWLLAVRSIQPEEKERI [AASDHPPT] were 3.3 ± 0.31 and 3.29 ± 0.2.
In turn, TWMFFFMMCVAERTYKQRFLFAKL [PHTF1] returned a protein stability index (treatment: DMSO) of 2.83 ± 0.22 and a protein stability index (treatment: MLN4924 1 uM, 8 h) of 2.92 ± 0.36.
Regarding TYEEAAAYIQCQFEDLNKRKDTKE [GNAI1], the protein stability index reads like this: (treatment: DMSO) 4.61 ± 0.15; (treatment: MLN4924 1 uM, 8 h) 4.67 ± 0.12.
On the same counts, the results for VAHVESLQEKSQCALEEYVRSQYP [NR2F2] are 3.6 ± 0.28 and 3.96 ± 0.25.
Take VAQGPTNQGLNVMVWNQNGKSPSI [ADAMTSL2]: the protein stability index reads like this: (treatment: DMSO) 3.11 ± 0.4; (treatment: MLN4924 1 uM, 8 h) 3.62 ± 0.23.
VAWCYYSVSLRKAERLRAELLDLK [MYORG]: the protein stability index is, setting by setting: (treatment: DMSO) 2.35 ± 0.42; (treatment: MLN4924 1 uM, 8 h) 2.15 ± 0.47.
For VCTVQFLISKGANVNRTTANNDHT [ANKRD17], the protein stability index runs as follows: (treatment: DMSO) 2.28 ± 0.24; (treatment: MLN4924 1 uM, 8 h) 2.46 ± 0.4.
The sequence VDCACLKENPECPVLKRSSESMEN [KMT2E] returned a protein stability index (treatment: DMSO) of 4.96 ± 0.37 and a protein stability index (treatment: MLN4924 1 uM, 8 h) of 4.98 ± 0.19.
Consider VDFQCVKSKSITNLAAAAADIPQD [BTBD10], for which the protein stability index reads like this: (treatment: DMSO) 4.79 ± 0.28; (treatment: MLN4924 1 uM, 8 h) 4.8 ± 0.11.
Consider VDFTFVENVVHGHILAAEQLSRDS [NSDHL], for which the protein stability index was determined as 2.37 ± 0.36 (treatment: DMSO) and 2.26 ± 0.4 (treatment: MLN4924 1 uM, 8 h).
In the case of VDGDQSKILISGLEPSTPYRFLLY [TNXB], the protein stability index was determined as 2.41 ± 0.45 (treatment: DMSO) and 2.21 ± 0.48 (treatment: MLN4924 1 uM, 8 h).
As for VDLELFPSPDMECADVPLLTPSSK [ETS1], the protein stability index amounted to 4.07 ± 0.24 (treatment: DMSO) and 4.05 ± 0.2 (treatment: MLN4924 1 uM, 8 h).
In the case of VDLVDESGYVSGYKHAGTYDQKVQ [TPPP], the protein stability index stood at 4.04 ± 0.32 (treatment: DMSO) and 4.01 ± 0.17 (treatment: MLN4924 1 uM, 8 h).
For VDPIGHLYIFATCLGLSYDGLLGD [MAGEA3], the protein stability index turned out to be 3.06 ± 0.37 (treatment: DMSO) and 3.21 ± 0.34 (treatment: MLN4924 1 uM, 8 h).
For VDSAEYSCLKAIVLFTSDACGLSD [NR2F2], the protein stability index is, setting by setting: (treatment: DMSO) 2.23 ± 0.38; (treatment: MLN4924 1 uM, 8 h) 2.25 ± 0.31.
In the case of VDTLNVKDIAPEKQLLNSAVIAQQ [DLC1], the protein stability index runs as follows: (treatment: DMSO) 4.53 ± 0.36; (treatment: MLN4924 1 uM, 8 h) 4.55 ± 0.24.
The sequence VEGKCLQSGFEMLKDVKSTLEKCE [TRIM39] had a protein stability index (treatment: DMSO) of 4.31 ± 0.21 and a protein stability index (treatment: MLN4924 1 uM, 8 h) of 4.41 ± 0.19.
VGAAGSARQELLGDRPRWQRLLGE [ANKRD9]: the protein stability index (treatment: DMSO) was determined as 3.54 ± 0.27 and the protein stability index (treatment: MLN4924 1 uM, 8 h) worked out at 3.31 ± 0.15.
Regarding VGLGTCSMFSRVGGIIAPFIPSLK [SLC22A15], the protein stability index reads like this: (treatment: DMSO) 2.1 ± 0.36; (treatment: MLN4924 1 uM, 8 h) 2.33 ± 0.45.
Take VGTAAVNMCLVATGGADAYYEMGI [IMPA1]: the protein stability index amounted to 2.71 ± 0.045 (treatment: DMSO) and 2.73 ± 1.1 (treatment: MLN4924 1 uM, 8 h).
